# Laboratory results as given in the supplement of paper PMC10126150.
# ± gives the standard deviation of the averaged measurements.
# Tested on: ATP
# Assay: switch fluorescence ratio, 500 uM ATP over buffer (Cy3 cluster intensity, sum of 5 cycles each) (fold (ratio)); higher = stronger signal-on switching upon ATP binding; sequences stand for … in TCGTCGGCAGCGTCAGATGTGTATAAGAGACAGTTTTTTTTTTTTTTTTTTTTTTTTT…TC
# Settings: aptamer strand: ATP DNA aptamer (quencher-CACCTGGGGGAGTATTGCGGAGGAAGG + anchor), 100 nM annealed; ATP concentration: 500 uM
# Method in brief: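 Clusters with intensities outside 100-1000 RFU were excluded. The remaining Cy3-labelled switching-strand clusters on a modified Illumina MiSeq flow-cell had been annealed to 100 nM quencher-labelled ATP aptamer and imaged in selection buffer, then after 15 min with 500 uM ATP at 22 °C, for five cycles separated by NaOH stripping and re-annealing. The fluorescence ratio, averaged per switch-domain sequence, is each cluster's summed target-cycle Cy3 intensity over its summed buffer-cycle Cy3 intensity.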
# 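Note: ATP exposure 15 min at 22 °C before imaging.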
row,Sequence,switch fluorescence ratio
1,CCTGGGAGCA,1.08 ± 0.057
2,ACGAAGGGTC,0.9941 ± 0.0098
3,TAGAATCCGG,0.979 ± 0.011
4,AAGGGGGAGG,0.982 ± 0.034
5,TGAGTGTAGA,1.07 ± 0.023
6,AGTGTGACAG,0.987 ± 0.018
7,TGGGCTATTT,0.964 ± 0.017
8,TGATATGTGT,0.973 ± 0.053
9,TCCTTTAGGT,0.993 ± 0.053
10,AGGATTAGGA,1.01 ± 0.062
11,TGGGTGTTTG,1.03 ± 0.038
12,CCGTTCCCGT,1.13 ± 0.028
13,TTATTTTTGC,1.01 ± 0.042
14,TTTAGGAGTT,0.996 ± 0.019
15,CGGTTATGGT,0.99 ± 0.022
16,GGTAAATATG,1 ± 0.019
17,GTTTTTG,0.984 ± 0.031
18,GTCAAATTGT,0.992 ± 0.017
19,TATGAGATTT,0.955 ± 0.026
20,TCGACGTTTG,1.01 ± 0.011
21,TGCGGAGAAT,1.028 ± 0.0026
22,TTGGGCAAGG,1.02 ± 0.026
23,GGTTATAGCT,1.02 ± 0.034

row,Sequence,switch fluorescence ratio
1,GTAAAAAGTG,1.05 ± 0.17
2,TCAGGTAATG,0.98 ± 0.033
3,TAATGTTTCG,0.978 ± 0.013
4,AGGGCTTAGA,0.9905 ± 0.0033
5,TGGAGGCTTT,1.009 ± 0.0073
6,TTTTATGTTA,0.977 ± 0.032
7,CTAGGACTTG,0.945 ± 0.026
8,GCAGGACGGG,1.4 ± 0.64
9,GTTTTTTCTT,0.971 ± 0.051
10,TGTGTTTTTG,1.01 ± 0.015
11,GGGAATGGGA,0.997 ± 0.027
12,TTGCGAAATC,1.44 ± 0.58
13,GAAAGTATAA,0.998 ± 0.013
14,TAATGTTTTG,1.01 ± 0.018
15,TCCAGGTCGG,1.2 ± 0.025
16,CAGGGGGGTA,1.01 ± 0.016
17,TGCTTATCTG,0.99 ± 0.032
18,GCATGGGGCG,1.037 ± 0.0041
19,GGTTGAAGTG,0.974 ± 0.012
20,GGCTAGGGGA,1.13 ± 0.21
21,AAAAGCATGT,1.06 ± 0.03
22,CGATTCTTGG,0.99932 ± 5.1e-05
23,GTCAGATGGG,0.948 ± 0.01

row,Sequence,switch fluorescence ratio
1,TTCAGGGGTC,1.02 ± 0.018
2,TATAAGGGCG,0.976 ± 0.058
3,CCTATTTGTA,0.974 ± 0.051
4,CCCATAGTAT,1.01 ± 0.058
5,GTCATCTGGG,0.982 ± 0.017
6,TCAGACGTTT,1.011 ± 0.009
7,TCAAAGCAAA,1.41 ± 0.077
8,TCTGGTGGTT,0.981 ± 0.01
9,TCAGGAATTT,1.68 ± 1.2
10,ATTTCAGTCT,0.977 ± 0.051
11,CATGCGTTG,0.9898 ± 0.0016
12,AAAGTTTGCG,1.04 ± 0.11
13,ACCGGTTTCT,0.997 ± 0.037
14,TTTGGAATGG,0.991 ± 0.054
15,CGTTTGAACT,1.025 ± 0.0094
16,CTAATTGCGA,1 ± 0.016
17,GATTTTCAGT,0.975 ± 0.013
18,ACATGTGGAT,0.996 ± 0.05
19,GAGTAACGGT,1.03 ± 0.027
20,AAGAGGCCGG,0.986 ± 0.031
21,ACCAGATGCG,1.01 ± 0.03
22,GAATTTTTGT,0.956 ± 0.018
23,GCTATACGAT,2.17 ± 0.18

row,Sequence,switch fluorescence ratio
1,AGACTGGGGC,1.03 ± 0.03
2,CGGTTATCGC,1.03 ± 0.052
3,TAGGGTGTGT,0.952 ± 0.016
4,CTTGTGGCTA,0.956 ± 0.046
5,TTTTCCTAAC,0.999 ± 0.071
6,GCCTTACGTC,1.05 ± 0.052
7,CGTACTGTAA,1.18 ± 0.03
8,GGTGGGTGTC,0.974 ± 0.016
9,CAATGTGTCT,1 ± 0.033
10,ATATGTATGA,1.003 ± 0.0037
11,AGTAGTTGAA,0.988 ± 0.044
12,TGGGTGGGAA,1.02 ± 0.04
13,CAGATGCGGA,0.984 ± 0.017
14,GGATCGGGCG,0.973 ± 0.051
15,GGGTTAGACT,1.07 ± 0.086
16,CCGACCAGGG,1.3 ± 0.13
17,GCGGTGCTTG,0.9901 ± 0.0071
18,TCCGCCATGG,2.71 ± 0.28
19,TACCATCTTG,0.997 ± 0.037
20,TAGTAATCGA,1.02 ± 0.018
21,CGTGGGGGGG,1.02 ± 0.052
22,TGGGTGGAGG,1.02 ± 0.043
23,GGGGCTAGTG,0.977 ± 0.046

row,Sequence,switch fluorescence ratio
1,GGTGAGATTA,0.9804 ± 0.0073
2,AAATAATGCA,0.9863 ± 0.0076
3,CATGGGGGAC,0.995 ± 0.031
4,AATATCTTGC,1.05 ± 0.028
5,TTTATATTAG,0.9889 ± 0.0075
6,GATGAGGTGT,1.01 ± 0.036
7,GCTTTACAGA,1 ± 0.016
8,CAAGGCTACG,1.06 ± 0.04
9,TCGGTATATG,0.991 ± 0.011
10,ATTTTCACAG,1.03 ± 0.077
11,GGGGACTGCG,1.05 ± 0.023
12,TGCTTTAAAC,0.995 ± 0.032
13,GCCGTTCTTA,1.05 ± 0.037
14,TCACTGGTCT,0.9849 ± 0.0037
15,CTCATAGGGA,0.983 ± 0.024
16,AAAGGATAAT,1.01 ± 0.0077
17,TACTCATGGG,1.01 ± 0.035
18,AGAATTATAT,0.973 ± 0.023
19,GGCGGATTGG,1.02 ± 0.015
20,ATCGGGGGGA,0.986 ± 0.034
21,CTAATGGTTT,0.982 ± 0.024
22,CATAGACGGG,1.03 ± 0.081
23,GGCGATTGCG,0.979 ± 0.0041

row,Sequence,switch fluorescence ratio
1,TTTCAGGATG,0.963 ± 0.017
2,GGGTTAGCCT,0.999 ± 0.011
3,TTGGGTAGTG,0.993 ± 0.031
4,CGGCATGGGT,0.989 ± 0.018
5,AGAGCGTGGT,0.999 ± 0.023
6,TTTCACAAGG,0.9836 ± 0.0089
7,GCATTCCGAA,1.22 ± 0.028
8,GGCGTAATAT,1.54 ± 0.085
9,ACATGAGTCT,1.02 ± 0.02
10,TGAGAAGCAA,1.34 ± 0.056
11,AAAGGCGGTG,0.976 ± 0.023
12,AGACGGTTTG,1.01 ± 0.017
13,TGAGGTAGGG,0.976 ± 0.053
14,CAAATGTTTG,0.998 ± 0.02
15,CCTCGGGTTA,1.42 ± 0.038
16,GGGGGCCATG,1.03 ± 0.068
17,TGCGACGATG,1.03 ± 0.027
18,TTATATTTCT,1.01 ± 0.036
19,GAATGGGTTA,0.965 ± 0.018
20,TGGGTATAGG,0.975 ± 0.016
21,TGACGCGGGG,1.054 ± 0.0086
22,GGGAACAGCA,1.027 ± 0.0047
23,GAGAAATTAT,0.9772 ± 0.0067

row,Sequence,switch fluorescence ratio
1,CTGGTAATTT,1.02 ± 0.079
2,ATTTTACGTA,1.143 ± 0.0025
3,TTATATTGGG,1 ± 0.033
4,CCTTATTTTG,1.05 ± 0.065
5,GTTTAGACGT,1.01 ± 0.011
6,GCGCTATGAG,1.04 ± 0.02
7,GTAGTTTGAA,0.989 ± 0.036
8,CTGATGCCGT,1.08 ± 0.057
9,CGGGCCTGAA,0.999 ± 0.041
10,GAGGATGAGG,0.954 ± 0.0017
11,GTTAGTTGGA,0.964 ± 0.025
12,ATGCGATCAA,1.02 ± 0.014
13,TTAATGGGAT,0.987 ± 0.021
14,AGTTTGACCT,1.15 ± 0.032
15,GGGTATTTGG,0.987 ± 0.042
16,CATAAAAGAT,1.01 ± 0.017
17,CGGGGGATTT,1.01 ± 0.014
18,TCTGAGCCGA,1.39 ± 0.52
19,ACGGGTGAGC,1.09 ± 0.011
